First the molecules themselves.
B1: Tyrosine-protein kinase YwqD (Bacillus subtilis), P96716 (parent)
chain: MALRKNRGSRMQRNVIAMTEPKSLNSEQYRTIRTNIEFASVDRQMKSVMITSACPGEGKSTTAANLAVVFAQQGKKVLLIDADLRKPTVHTAFFLENTVGLTSVLLKKSSMEQAVQASNEKHLDVLTSGPIPPNPAELLSSKWMKELAYEACAAYDMVIFDTPPILAVADAQILGNVADGSVLVISSGKTEKEQAAKAKEALATCKSKLLGAIMNGKKLSKHSEYGYYGTKDNFMQK
partner: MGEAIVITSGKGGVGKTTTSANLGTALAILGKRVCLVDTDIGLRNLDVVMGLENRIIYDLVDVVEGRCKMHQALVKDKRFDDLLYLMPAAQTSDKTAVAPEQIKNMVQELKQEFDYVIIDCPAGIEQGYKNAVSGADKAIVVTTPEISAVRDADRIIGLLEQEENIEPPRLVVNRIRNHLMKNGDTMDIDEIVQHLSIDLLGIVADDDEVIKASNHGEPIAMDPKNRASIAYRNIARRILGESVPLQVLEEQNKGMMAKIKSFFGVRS

The experiment covers variants of B1. The settings on record: with mind_bacsu minD.
For D81A, the “effect of a mutation on the interaction” value is listed as “decreasing interaction strength”.
The same measure for K59M: “disrupting interaction strength”.

Values taken from IntAct's records for PubMed 25374563.
